Target: T1, Uracil-DNA Glycosylase (UDG) (UniProt P12295)
T1 sequence: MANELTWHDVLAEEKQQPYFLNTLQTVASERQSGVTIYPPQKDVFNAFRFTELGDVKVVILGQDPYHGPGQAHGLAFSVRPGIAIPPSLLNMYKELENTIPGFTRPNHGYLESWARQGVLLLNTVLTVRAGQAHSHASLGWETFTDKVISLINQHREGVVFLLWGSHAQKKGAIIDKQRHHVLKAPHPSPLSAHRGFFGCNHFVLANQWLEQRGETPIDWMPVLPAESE

half-maximal inhibitory concentration of UGI on UDG activity, read by fluorescence of the dU-containing circular crRNA-assisted CRISPR-Cas12a system: 0.087 U/mL
Substance: uracil glycosylase inhibitor (UGI) (from UniProt P14739 1-84) (natural protein)
